One data set relates to T cells (PBT, LPT). Nature of the data set: Adhesion assay to collagen type I and fibronectin. In kind it is cell-based, human. As for the experimental part:
96 well flat-bottom plates were precoated overnight at 4° C. with 12 μg/well fibronectin (Chemicon) in DPBS, 40 μg/well collagen type I (Sigma-Aldrich) in 0.1 M acetic acid, or 3% BSA (Sigma-Aldrich) in DPBS as a control and then washed three times with DPBS. Freshly isolated T cells were fluorescently-labelled with 5 μM calcein-AM (Molecular Probes, Eugene, Oreg.) for 30 min at 37° C. in 5% CO2 at 5×10^6 cells/ml in RPMI. The cells were then washed three times with RPMI containing 5% FCS. Calcein-labelled T cells were resuspended in RPMI and 5×10^5 T cells/well were added to 96-well plates containing purified ECM components or BSA for the indicated times. Saturating concentrations of integrin-blocking mAbs (predetermined by flow cytometry) were preincubated with T cells for 30 min at 37° C. before adding T cells to the wells for the adhesion assay. Nonadherent cells were removed by a standardized washing technique that was developed to minimize background binding, which includes both an orbital and a rocking motion repeated three times with RPMI. Adhesion was quantified with a multiwell fluorescent spectrophotometer (Tecan, Groedig, Austria). For each experimental group the results were expressed as the mean percentage±SD of bound T cells from triplicate wells.

A further data set has as its system chronic DSS colitis. Briefly: Therapy of chronic DSS colitis, disease activity index (DAI). In kind it is in vivo, Balb/c mice. The following applies: control 5.3 ± 0.7. The source says:
Colitis was induced in 30 8- to 10-week-old, female, Balb/c mice (Jackson Laboratories, Bar Harbor, Me.) by adding 5% DSS (Sigma Chemical Co., St. Louis, Mo.) (Dextran Sodiumsulfate (DSS) to their drinking water for the period of seven days and allowing them to drink ad libitum. At the 8th day DSS administration was stopped for another seven days. This scheme of DSS administration for seven days followed by a period of seven days pure water administration was repeated as shown in FIG. 15B. At the 29th day 20 mice were treated with Galectin-2 intraperitoneally (i.p.) parallel to DSS administration. In one trial of this treatment a group of 10 mice were treated with 2 mg/kg Galectin-2 once a day and in another trial the same total dose was distributed in two administrations for a group of ten mice, e.g. 10 mice were treated with respectively 1 mg/kg Galectin-2 twice a day. Parallel a group of 10 mice was treated with 0,9% NaCl instead of Galectin-2 as control. At the 8th day the Galectin-2 treatment was stopped. Parallel to the treatment mice were weighed and inspected for diarrhea and rectal bleeding. After stopping the treatment mice were killed, their entire colon was resected, and its length was measured and weighed. The disease activity index (DAI; i.e., the combined score of weight loss and bleeding) was determined according to a standard scoring system […]

For another data set, the system named is CD3, CD7, β1 integrin. Briefly: Magnetic separation / co-immunoprecipitation of galectin containing complexes. The following applies: galectin coated beads, immunoblot for CD3, CD7, β1. In kind it is binding, human. How it is done: For immunoblotting cells were washed in PBS, and lysed in cell lysis buffer (1% Triton-X, 0.5% NP-40, 0.1% SDS, 0.5% sodium deoxycholate, 5 mM EDTA, 50 mM and 50 mM protease- and phosphatase-inhibitor cocktail 2, 1 mM PMSF, 100 μg/ml trypsin-chymotrypsin inhibitor, 100 μg/ml chymostatin in PBS). The concentration of proteins in each lysate was measured using the Bio-Rad protein assay (Bio-Rad Laboratories, Hercules, Calif.). Equivalent amounts of protein (10 μg) were fractionated on a 10-20% Tris-glycine gel and electrotransferred to a nitrocellulose membrane (Novex, San Diego, Calif.). Membranes were blocked with 5% milk in 0.1% Tween 20-PBS (Fisher Scientific, Hanover Park, Ill.), followed by incubation for 60 m in at room temperature with the indicated primary antibody. The membranes were washed six times with 0.1% Tween 20-PBS and then incubated for 1 h with the appropriate horseradish peroxidase-conjugated secondary antibody (Santa Cruz Biotechnology), washed, and incubated with the chemiluminescent substrate (Perkin-Elmer, Carlsbad, Calif.) for 5 minutes. The membranes were then exposed to film (Amersham, Arlington Heights, Ill.). […]
A general note: In western blotting, separated proteins are transferred to a membrane and probed.

For the next data set, the system named is PBT. Briefly: Extent of apoptosis and necrosis (annexin-V, PI, DAPI staining). In kind it is cell-based, human. How it is done: Apoptosis was determined by monitoring fragmentation of nuclear DNA and access of annexin V to c ell surface phosphatidylserine (PS). To detect fragmentation of nuclear DNA, T cells were cultured in the presence and absence of the respective galectins, with or without blocking antibodies or further activation for 48 h. Thereafter, cells were fixed in 0.2 ml of 37% formaldehyde for 10 min at room temperature. The cells were then treated with 1 ml PBS containing 0.2% Nonidet P-40 (Sigma-Aldrich) for 2 min at room temperature and then rinsed once in PBS. The apoptotic cells were detected by staining of nuclear DNA with 4,6-diamino-2-phenylindole (DAPI) (Calbiochem). DAPI was added at a concentration of 0.2 ng/ml of PBS and cells were incubated at room temperature for 20 min in this solution. Cells were rinsed twice in PBS and the coverslips were maintained cell side down on a microscope slide and analyzed using a Zeiss Axiovert 135M microscope (Carl Zeiss, Oberkochen, Germany). To detect early phases of apoptosis, access to PS was measured. Cells were cultured as described, harvested at the respective time points, stained with FITC-labeled annexin-V and PI and analyzed by flow cytometry using the CellQuest software program (BD Pharmingen). A minimum of 15,000 cells was monitored in each case.

B1: galectin-2: β-galactoside binding lectin, non-covalent dimer with subunits of about 14 kDa; recombinant human or rat (SEQ ID NO:1, 2) (protein)
chain: MAGELEVKNMDMKPGSTLKITGSIADGTDGFVINLGQGTDKLNLHFNPRFSESTIVCNSLDGSNWGQEQREDHLCFSPGSEVKFTVTFESDKFKVKLPDGHELTFPNRLGHSHLSYLSVRGGFNMSSFKLKE
In the case of B1, in the data set on T cells (PBT, LPT) (CD3 activated PBT, without galectin 22.1±3.5%), the “cells adhering to collagen type I” value is listed as 15.1±5.6%. For the same molecule, the “cells adhering to fibronectin” value with T cells (PBT, LPT) (CD3 activated PBT, without galectin 26.3±5.6%) turned out to be 39.8±4.9%. In addition, in the data set on T cells (PBT, LPT) (LPT), the attachment to fibronectin result is “increasing” and the “cell adhesion to collagen” value is “inhibited”. Moreover, in the data set on chronic DSS colitis (1 × 2 mg/kg i.p. once a day), the “DAI (disease activity index)” value is 4.5 ± 0.6,. In the data set on chronic DSS colitis (2 × 1 mg/kg i.p. twice a day), the “DAI (disease activity index)” value is reported as 2.8 ± 0.3,. Also, the glycoproteins co-immunoprecipitated entry with CD3, CD7, β1 integrin was “coimmunoprecipitate only with integrin β1”. The “time to induction of apoptosis” value in the data set with PBT lay within 6 to 12 h. The “time course of annexin-V staining” value with PBT (50 μg/ml, anti-CD3) is “gradual increase over 72 h”. The “nuclear fragmentation (DAPI staining)” value with PBT (25 and 50 μg, data not shown) is recorded as “induce nuclear fragmentation”. Also, in the data set with PBT (PBT activated by anti-CD3 mAbs), the “T cell apoptosis (annexin-V)” value is recorded as “induced a dose-dependent apoptosis” and the “T cell necrosis (PI)” value was “albeit to a much lesser extent, necrosis”. In addition, the “apoptosis of T cells from patients with RA or CD” value in the data set on PBT (anti-CD3, 48 hours, 0, 10, 25, 50 μg/ml) is listed as “induces apoptosis”. For the same molecule, the “percentage of T cell apoptosis relative to galectin-1” value with PBT (anti-CD3 activated PBT) was “higher than that induced by galectin-1”. The “apoptosis in CD4 and CD8 positive T cell populations” value in the data set with PBT (data not shown) was “comparable in CD4 and CD8 positive T cell populations”. In addition, in the data set on PBT (without cell stimulation, 0, 10, 25, 50, 100 μg/ml), the “T cell apoptosis (annexin-V)” value is “failed to induce T cells apoptosis”.

The record behind these values is patent publication US20080113907A1, “Uses Of Galectin-2” (Charite-Universitat-Smedizin Berlin, priority 2004, published 2008).
